Article PMC10371073

B1: Fused in Sarcoma (FUS), endogenous wild type [human (endogenous in HEK293 and human fibroblasts)] / DNA Ligase IIIα (Lig3), mitochondrial form mtLig3 [human (endogenous in HEK293 and human fibroblasts)] (parent)
chain 1: MASNDYTQQATQSYGAYPTQPGQGYSQQSSQPYGQQSYSGYSQSTDTSGYGQSSYSSYGQSQNTGYGTQSTPQGYGSTGGYGSSQSSQSSYGQQSSYPGYGQQPAPSSTSGSYGSSSQSSSYGQPQSGSYSQQPSYGGQQQSYGQQQSYNPPQGYGQQNQYNSSSGGGGGGGGGGNYGQDQSSMSSGGGSGGGYGNQDQSGGGGSGGYGQQDRGGRGRGGSGGGGGGGGGGYNRSSGGYEPRGRGGGRGGRGGMGGSDRGGFNKFGGPRDQGSRHDSEQDNSDNNTIFVQGLGENVTIESVADYFKQIGIIKTNKKTGQPMINLYTDRETGKLKGEATVSFDDPPSAKAAIDWFDGKEFSGNPIKVSFATRRADFNRGGGNGRGGRGRGGPMGRGGYGGGGSGGGGRGGFPSGGGGGGGQQRAGDWKCPNPTCENMNFSWRNECNQCKAPKPDGPGGGPGGSHMGGNYGDDRRGGRGGYDRGGYRGRGGDRGGFRGGRGGGDRGGFGPGKMDSRGEHRQDRRERPY
chain 2: LLHGHPLFLRRKPVLSFQGSHLRSRATYLVFLPGLHVGLCSGPCEMAEQRFCVDYAKRGTAGCKKCKEKIVKGVCRIGKVVPNPFSESGGDMKEWYHIKCMFEKLERARATTKKIEDLTELEGWEELEDNEKEQITQHIADLSSKAAGTPKKKAVVQAKLTTTGQVTSPVKGASFVTSTNPRKFSGFSAKPNNSGEAPSSPTPKRSLSSSKCDPRHKDCLLREFRKLCAMVADNPSYNTKTQIIQDFLRKGSAGDGFHGDVYLTVKLLLPGVIKTVYNLNDKQIVKLFSRIFNCNPDDMARDLEQGDVSETIRVFFEQSKSFPPAAKSLLTIQEVDEFLLRLSKLTKEDEQQQALQDIASRCTANDLKCIIRLIKHDLKMNSGAKHVLDALDPNAYEAFKASRNLQDVVERVLHNAQEVEKEPGQRRALSVQASLMTPVQPMLAEACKSVEYAMKKCPNGMFSEIKYDGERVQVHKNGDHFSYFSRSLKPVLPHKVAHFKDYIPQAFPGGHSMILDSEVLLIDNKTGKPLPFGTLGVHKKAAFQDANVCLFVFDCIYFNDVSLMDRPLCERRKFLHDNMVEIPNRIMFSEMKRVTKALDLADMITRVIQEGLEGLVLKDVKGTYEPGKRHWLKVKKDYLNEGAMADTADLVVLGAFYGQGSKGGMMSIFLMGCYDPGSQKWCTVTKCAGGHDDATLARLQNELDMVKISKDPSKIPSWLKVNKIYYPDFIVPDPKKAAVWEITGAEFSKSEAHTADGISIRFPRCTRIRDDKDWKSATNLPQLKELYQLSKEKADFTVVAGDEGSSTTGGSSEENKGPSGSAVSRKAPSKPSASTKKAEGKLSNSNSKDGNMQTAKPSAMKVGEKLATKSSPVKVGEKRKAADETLCQTKVLLDIFTGVRLYLPPSTPDFSRLRRYFVAFDGDLVQEFDMTSATHVLGSRDKNPAAQQVSPEWIWACIRKRRLVAPC

Variants of: B1
Test: proximity ligation assay (PLA) in control and patient derived fibroblasts
Settings: with DNA Ligase IIIα (Lig3), GO treatment (100ng/ml for 1 hr) per legend, the box plot does not say whether control or GO-treated cells were counted, parent: 64, read off a plot

Row | response (PLA foci/cell) | Variant
1 | 19 | chain 1 R521H
2 | 20 | chain 1 P525L
